The target of experiment [1] is unmethylated mononucleosome (H3K9me0), 147 bp 601 DNA 5'-fluorescein-labeled. Put plainly: fluorescence polarisation; core mononucleosomes (147 bp 601 DNA, 5' fluorescein) at 150 nM, enzyme titrated; 100 mM Tris pH 8, 100 mM KCl, 1 mM MgCl2, 20 μM ZnSO4, 10 mM BME, 0.1% NP-40. (Fluorescence polarisation rises when a labelled molecule tumbles more slowly, as on binding a larger partner.)

The target of experiment [2] is fluoresceinated H3(1-20) K9me2 peptide, P68431. Put plainly: fluorescence polarisation; fluoresceinated H3(1-20) K9me1 or K9me2 peptide at 150 nM, enzyme titrated; 100 mM Tris pH 8, 100 mM KCl, 1 mM MgCl2, 20 μM ZnSO4, 10 mM BME, 0.1% NP-40.
Experiment [3] addresses N-terminally 6xHis-tagged G9a ANK-SET. Kind of experiment: pull-down; His:G9a coexpressed with MBP:G9a or MBP:GLP in E. coli; sequential cobalt and amylose resin purification; SyPRO Red stained bands quantified.
In experiment [4] the target is G9a ANK-SET, tags removed. Put plainly: SEC-MALS; His and MBP tags removed; injected at 10 μM, Shodex KW804 column, 0.4 ml per minute. (Size exclusion chromatography separates by hydrodynamic size, large species first.)

B1: GLP ANK-SET homodimer (complex)
chain: QEKSLAAEGRADTTTGSIAGAPEDERSQSTAPQAPECFDPAGPAGLVRPTSGLSQGPGKETLESALIALDSEKPKKLRFHPKQLYFSARQGELQKVLLMLVDGIDPNFKMEHQSKRSPLHAAAEAGHVDICHMLVQAGANIDTCSEDQRTPLMEAAENNHLDAVKYLIKAGAQVDPKDAEGSTCLHLAAKKGHYDVVQYLLSNGQMDVNCQDDGGWTPMIWATEYKHVELVKLLLSKGSDINIRDNEENICLHWAAFSGCVDIAEILLAAKCDLHAVNIHGDSPLHIAARENRYDCVVLFLSRDSDVTLKNKEGETPLQCASLSSQVWSALQMSKALRDSAPDKPVAVEKTVSRDIARGYERIPIPCVNAVDSELCPTNYKYVSQNCVTSPMNIDRNITHLQYCVCVDDCSSSTCMCGQLSMRCWYDKDGRLLPEFNMAEPPLIFECNHACSCWRNCRNRVVQNGLRARLQLYRTQDMGWGVRSLQDIPLGTFVCEYVGELISDSEADVREEDSYLFDLDNKDGEVYCIDARFYGNVSRFINHHCEPNLVPVRVFMSHQDLRFPRIAFFSTRLIQAGEQLGFDYGERFWDVKGKLFSCRCGSSKCRHSSAALAQRQASAAQEPQENGLPDTSSAAAADPL
modifications: not checked
The Kd is a measure of binding affinity in units of concentration. B1 showed a Kd in experiment [1] of 26.3 µM. This molecule also displayed a fold reduction of binding (reference not clearly named) in experiment [2] of 12.5 times.

B2: G9a-GLP ANK-SET heterodimer (complex)
chain 1: DAPGRADTSQPSARMRGHGEPRRPPCDPLADTIDSSGPSLTLPNGGCLSAVGLPPGPGREALEKALVIQESERRKKLRFHPRQLYLSVKQGELQKVILMLLDNLDPNFQSDQQSKRTPLHAAAQKGSVEICHVLLQAGANINAVDKQQRTPLMEAVVNNHLEVARYMVQLGGCVYSKEEDGSTCLHHAAKIGNLEMVSLLLSTGQVDVNAQDSGGWTPIIWAAEHKHIDVIRMLLTRGADVTLTDNEENICLHWASFTGSAAIAEVLLNAQCDLHAVNYHGDTPLHIAARESYHDCVLLFLSRGANPELRNKEGDTAWDLTPERSDVWFALQLNRKLRLGVGNRAVRTEKIICRDVARGYENVPIPCVNGVDGEPCPEDYKYISENCETSTMNIDRNITHLQHCTCVDDCSSSNCLCGQLSIRCWYDKDGRLLQEFNKIEPPLIFECNQACSCWRSCKNRVVQSGIKVRLQLYRTAKMGWGVRALQTIPQGTFICEYVGELISDAEADVREDDSYLFDLDNKDGEVYCIDARYYGNISRFINHLCDPNIIPVRVFMLHQDLRFPRIAFFSSRDIRTGEELGFDYGDRFWDIKSKYFTCQCGSEKCKHSAEAIALEQSRLARLDPHPELLPDLSSLPPINT
chain 2: B1 chain
modifications: not checked
On to B2, for which, in experiment [1], the dissociation constant Kd lay in the range of 6 to 7 µM.

B3: N-terminally Maltose-Binding Protein tagged GLP ANK-SET (domain or fragment)
chain: B1 chain
modifications: not checked
In turn, B3 gave a stoichiometry N (MBP protein per His:G9a) in experiment [3] of 1.

B4: GLP ANK-SET, tags removed (domain or fragment)
chain: B1 chain
modifications: not checked
Broadly, the stoichiometry N is a count of units in the complex or per binding partner. In experiment [4], B4 registered a stoichiometry N of 1 GLP per G9a.

B5: G9a ANK-SET homodimer (complex)
chain: B2 chain 1
modifications: not checked
Molecule B5 returned a Kd in experiment [1] of 6 to 7 µM.

B6: N-terminally Maltose-Binding Protein tagged G9a ANK-SET (domain or fragment)
chain: B2 chain 1
Take B6: the stoichiometry N (MBP protein per His:G9a) in experiment [3] came out at 1.

These data come from publication PMC8564726, “Heterodimerization of H3K9 histone methyltransferases G9a and GLP activates methyl reading and writing capabilities” (The Journal of Biological Chemistry, 2021).
